The target in one test is T1, HLA-A*0205 (human).
T1 construct: whole, on cells; Native HLA precipitated from tumor tissue
Kind of test: peptide eluted from HLA precipitated from glioblastoma tissue, identified by ESI-LCMS.

Test [1] has as its target HLA-A*0201 (recombinant heavy chain with beta-2 microglobulin) (human). Briefly: ELISA-based HLA refolding assay. The protocol: Stable HLA/peptide complexes consist of three molecules: HLA heavy chain, beta-2 microglobulin (b2m) and the peptidic ligand. […] The availability of these molecules is used in an ELISA-based assay to measure the affinity of interaction between peptide and HLA class I molecule (Sylvester-Hvid et al., 2002).
The amount of de novo-folded HLA/peptide complexes was determined by a quantitative ELISA. Dissociation constants (KD values) were calculated using a standard curve recorded from dilutions of a calibrant HLA/peptide complex.
(In general: An ELISA detects its analyte on a solid surface through an enzyme-linked reagent.)

6 molecules from patent US20090123489A1 (IMMATICS BIOTECHNOLOGIES, published 2009) can be followed below.

As for ALTTLMHQL (9-mer from PTPRZ1) [PTP-001], the binding result (in the test with HLA-A*0205; in test [1]) was “binds” in each case. FLLPDTDGL [PTP-004]: the binding result in test [1] is “binds”. On the same count and under the same terms, then FLYKVILSL [PTP-002], with “binds”.

As to AIIDGVESV [PTP-003], the binding result in test [1] is reported as “binds”.

Consider KVFAGIPTV [PTP-005], for which the binding result in test [1] is “binds”. Take SLWAGVVVL [CHI-001]: the binding result in test [1] is listed as “binds”.
